# Measured values published in a protein production outcome set (Wang et al. 2014).
# Experiment: label from the status in PepcDB records
# 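Also: failed if final PepcDB status was selected cloned or expressed and not failed if soluble or beyond.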
row,Sequence,protein production
1,MKKYNVDWNYWVVRFLFVMALIVGYLLITNYQHFVHSVSGLLGILSPFITGFVIAYLLSGSQKKIEGLLERVPLPVVKKAKHGLSVLLLYLIILFIFVLTLNYIVPLLISNLVDLANSLPTFYDHMVQFVMSLEDKGILKTAAIEKYLNSVLKDLSPERFLNQWTQALFSLGTLTKNVSSFFLNAFLTLIISIYALVFKQSILTFVEKAAHKLLSEKVYKQTQTWLNTTNKIFYKFISCQFLDACIIGVSSTILLSILNVKFAVTLGILLGICNMIPYFGSIFASIVAGVITLFTGGVTQAITVLLVLLILQQIDGNIIGPRIMGDALNVNPILIIVSITIGGAYFGVLGMFLAVPVAAIIKIIVSEWLNESKENDKIVDSIES,failed
2,MKLALVNRQVILPESGTESFQCHASTLVRLPCGTLVAAWFAGLREGSEDTAIWLSRYEHNIWTTPQRVAAREGEAHWNPVLFYPSDKLWLFYKVGSDVHVWKTWFITSSDRGFTWSTPAPLVNDDILPRGPVKNKLLLASNGAWIAPGSIESPERWRAFVDRSSDEGKHWSISFVPLEPDNAISGTNVALWDGIKKGRLWECCLENLLRWDGVIQPTLWESSPGHIHMLLRSTRGAIFRSDSIDYGATWSVARATSLPNNNSGIDLVSMQDGTLILALNPVNGNWGKRYPLSLIASQDNGESWLPLLDLESDHGEYSYPAIISEGGIVHITYTWNRKNIVYCRLQTVLEHHHHHH,failed
3,MKLATFDDGSRDGRLLVVARDLGHAVDASDIATSLQVALENWPQVEARLQALYQQLNDDAVAGAFALDLARLAAPLPRASQWLDGSCFLSHGALMQKAFNLDPIEGVEHTPLIYQGASDDFLGPLADIPLPSEAHGIDFEGEFAVLLDDVPMGCPAEQALQHVRLILQLNDVSLRALAPREMKTGFGFLQAKPASSFAPVAVTPDELGEAWRDGRVHLPLHVHWNGEWFGHPHGGAMHFGFHQLIAHAALTRRLSAGTLLGSGTVSNAERSVGSACIAERRAIETIACGAPRTAFMRFGDRVRMEARGPEGEVLFGAIDQRVVRGGWPCE,failed
4,MKLEKLIPWLAGGLAVVGAAIAVIPPSPVRGFDTDAFGRLPVLEGGRVKPVDSVSRNALLMIRGQQSFRYDPDGDGPQKGRTISSDEWILDVLFRPELADQYPVFVINDPEVLGLMGMRQSSNRYFAFSALVPHLEEIQKQAMAAHQVDAKQRTRFQSAIANLFERVYLYYRLKNTVQLAGSPGLAAEVASAGTPGAQQRHQAIEELAYFRPIPPAAGTTGDDWLNMGQALRGAASGQVGDALSGWARLSVAYMAQDPSSFGRAVADVTAADAAARPDSIDLAGHEIVFNRAQPFYAGMVVYVLAMLALFASWLWKPKILQPAAYGLLVAGALIHTLGLVSRVLLQGRPPVTNLYSSAVFVGWGAVVLGVILERIYRKGFATAVAAASGFASLIVAHHLSGDGDTMEMMRAVLDSNFWLATHVVTITIGYSGTFLAGAMAIGYTLRKHLVRKPDPGTTKALMGMTYGVICFALFFSFLGTVLGGIWADQSWGRFWGWDPKENGALLIVLWNAIILHARWGGFVRERGIMAMAIFGNVITSLSWFGVNMLGVGLHSYGFMDSAFWALTGFIASQLAIMAFTLLPAQFWRTAHAAGKQQEPSPEPGH,failed
5,MKLGVNLCFAVKRWLEPDRLAGLVRDDLGLEYVQYTYDLTDPWWPDIERDRRAIAYAKAFRKAGLTIESTFGGLASYTYNHFLAPTLELQSLGYQHLKRAIDMTAAMEVPATGMPFGSYSAADALNPARREEIYAIARDMWIELAAYAKRQGLSMLYVEPVPLATEFPSSAADAARLMADLDGRTEIPVRLLVDWGHALFEPLFGPEADMDHWMDLCQPWIAAYHIQQTDGQLDRHWSFTQPGVVTPQRLQDFWDKYALTDQTFFAEILYPFEARDEDVLADMIASVKALKAASPAA,not failed
6,MKLICSKANLLKGVNIVSKAVPTRTTMAILECILIDASANEIKLMANDMELGIETIIDGTIEERGIIALDAKIFSEIVRKLPDNDVTIETDASFKTVISCEKAKFNIIGKSGDDFSYIPYVERNESIVLSQFTLKEVIRQTIFSIADNDNNKLMTGELFEIEENKLRVVSLDGHRISIRYIEMKNHYDSKKVVVPGKTLQEISKIIPGSADEDVVIYITNNHIVFEFENTTVVSRLIEGEYFKIDQMLSSDYDTKVRINKRELLDCIDRATLLVKEGDKKPIIMNITDGNMELRINSFIGSMNEDIDIDKDGKDIMIGFNPKFFIDALRVIDEEEVNLYMVNPKAPCFIKDDEGKFIYLILPVNFNTAAN,not failed
7,MKLILAPMEGLTDPIMRDVLTHVGSFDWCVTEFIRVTDSVLPDHVYYTYCPELKNNGKTAAGTPVHVQFLGNNPDMLAANAEKVVALGAPAIDLNFGCPAKTVNRHRGGSILLDEPDVVHLLVKAVRDAVPAHIPVSAKMRLGYLDENHTMDNAYAIQEAGANWLTVHARTKADGYTPPAYWEKIQPIKDALSINVIANGEIWTNQDAKACQQQSGCEDLMIGRGAVTTPDLTLCIRQNVDEALMNWAALIELQQRFLNGEYKTEIGMIGRYKQWLGMMTKAYPEAKQLWDEIKRIKNLDEILLKLGRSS,failed
8,MKLKSLLLRYYPPGIMLEYEKHGELKTKSIDLLDLGPSTDVSALVEEIQKAEPLLTASRTEQVKLLIQRLQEKLGQNSNHTFYLFKVLKAHILPLTNVALNKSGSCFITGSYDRTCKLWDSASGEELNTLEGHRNVVYAIAFNNPYGDKIATGSFDKTCKLWSVETGKCYHTFRGHTAEIVCLSFNPQSTLVATGSMDTTAKLWDIQNGEEVYTLRGHSAEIISLSFNTSGDRIITGSFDHTVVVWDADTGRKVNILIGHCAEISSASFNWDCSLILTGSMDKTCKLWDATNGKCVATLTGHDDEILDSCFDYTGKLIATASADDGVSLCRPGRSAVARSWLTATCASQVQAILLPQPPELCHVLGNHV,failed
9,MKLKTFLIVGCLGGLFTLSSCTAPTNVKDYSAYVNPFIGTGGHGHTFPGAVVPHGMIQPSPDTRIDGWDACSGYYYADSTINGFSHTHVSGTGCCDYGDVLLMPTVGKQQYRTTDPQSQRLAYASSFSHKNEIAEPGYYSVFLDTYQVKAEISSTKRGAIHRYTFPENTESGFIIDLDYSLQRQTNSEMEIEVISDTEICGHKKTTYWAFDQYINFYAKFSKPFSYTLVTDSITMDNGKRLPVCKALLHFNTSKDEQVLVKVGVSAVDIAGARKNVESEIPGWDFEKVRKDARTAWNEYLSKIDITTSDKEDKAIFYTALYHTGISPNLFTDADGRYLGMDLEVHQGDTLNPIYTVFSLWDTFRALHPLMTIIDPDLNNHFINSLIKKHQEGGIYPMWDLASNYTGTMIGYHAVPVIVDAYMKGYRNFDTKEAYKACLRAAEYDTTGIKCPDLVLPHLMPKAKYYKNAIGYIPCDRENESVAKALEYAYDDWCISIFAEAMSDFESKAKYERFAKAYEFYFDKSIRFMRGLDSKGEWRTPFNPRASTHRSDDYCEGTAWQWTWFVPHDVEGLVNLMGGEDAFVQKLDSLFSADSSLEGETTSSDISGLIGQYAHGNEPSHHVIHLYNYVNHPWRTQELVDSVYRSQYANSIEGLSGNEDCGQMSAWYILNSMGFYQVCPGKPVYSIGRPAFDKAVINLPEGKTFSIVVKNNGKKNKYIESVLLNGKALNIPFFNHQDIANGGTMEIKMTDHPTKWGVLSPALSSKEEE,failed
10,MKLKYCHYAYDDEGYVIHMLTSNERTFFTNAYIIETKNSIVVVDTLMVNSDAILLRQYMDNINKPLIAVIITHGHPDHYNGTEIITGFKEVPIISTKGIRDCIQDTVDSKEVKWKPYFGQDWPEHKILPNQLVIDSEVVNLDGLDYSFRDLGAAESSSDLFFTLGEKRSVIFVGDVVFNNMHGFMNDGNSAQWLKVLQKLLTEIADVKLLFTGHGDPGDTHQLVQRQIDYISHYRSNLLAIIRGNQLEHHHHHH,failed
11,MKLLIKKITYIIFILCSYCSYGEAKIQLPSILGNGMVLQQKSEVRLWGKATPNKKVTIYTSWNAQQQEVNSNKKGDWIVTVTTPEAGGPYTIRISDGEELLLDDVLIGEVWLCSGQSNMEMPVKGFRGQPAAESQNTIVNVNPNRSLRLFTVQRAYSSILEEDVTGQWEKNTPKSVSTFSAVAYYYGDQLQKVLGIPVGLIHASWSGSSIEPWISKENLLQFPEVDLTPAENPQLKYANGTPTVLYNAMIKPLENYNIKGMIWYQGESNSARPEQYQRLFAVWAKQNRALFRSKDLPIYYTEIAPVASPVDRPFQRAIFREAQLESMHEVSNTGMAFTNDLGSEKFIHAPKKREIGQRLAYWALAKTYQLEGFEYSGPIHRSYMKNGKIIEILFDHADDGLNPENEPLVGFEIASEDSIFYPANAEIINGTSRVKVWSDKVAQPVYVRYAFRNFLRGNLVNNAGLPAAPFRMDLRKMDFQNPEKLGWARVTTFGKLPEYISVYHSPEWIESTRTNAYIAVVDTKKGGSLDVGGADSGVKTPIEFYQSEKRKPSIVLNGGYFANGRTVSLICKNGKILSDNISVVNRLLEGKKTAYYPTRSVFSLYTDGTYHVDWIYKSAQQTYAYDMPALNSSTRPPLSVPSKGFPKGAKVWTAEMGIGAGPILIKDGTIRNSWVEELLDVASGINPQTCQPRSAVGVTQDGKLILFVCEGREQTPDIPGMTLAQLARLMRSFGCVDALNLDGGGSSCMLINGKETIKPCNKYHHQRPVATVLFAR,failed
12,MKLLLTRPEGKNAAMASALDALAIPYLVEPLLSVEAAAVTQAQLDELSRADILIFISTSAVSFATPWLKDQWPKATYYAVGDATADALALQGITAERSPADSQATEGLLTLPSLEQVSGKQIVIVRGKGGREAMADGLRLRGANVSYLEVYQRACPPLDAPASVSRWQSFGIDTIVVTSGEVLENLINLVPKDSFAWLRDCHIIVPSARVETQARKKGLRRVTNAGAANQAAVLDALGM,not failed
13,MKLNISAQSLNYTKYDNVIPSRDAILGLFDKVKSYLSYEQISHSSGLNDEPEKDALKKRLRAMERDGQLIFTRRKGYKRVDQSSLVTGKISIHVDGFGFLTYDDNEKDLFLPKHQLSHVFDGDIILVLKGHTQHQGRSNHRFIKIVERKTTHIVGLLKRKGSKLYLLPENSKLTQTIYVTPNELIAKNVGKLVHCKINTYPDYRQPTTVEVNEVLGRPGEAGIEVKLALRRHGINDKWDKDVLDAASAFGSQVEEKDKTSRVDYRDLPFVTIDGDDAKDFDDAVYGYQMDNGQWKLFVAIADVSHYVKPNDHLDLEAQSRATSVYFPGCVVPMLPESLSNGLCSLNPNEDRLVMVCEMTFDDEGNMLDSEFSEGIIHSHARLTYDDANRIIMQSSAKTTYQSNNPKNNIAQYLVNLHRLYLNLSGQRKVRGAIDFDTQELAFKLNNKKKIASIVPVVRNDAHRMIEEFMLCANVATAQFLELNKIPSLYRVHSGPQMKKLTSLRMLLAEKGLTLAGGDKPTSHDYNALLDQVRDLDECDIIRTLLLRSQSQAEYSPKNLGHFGLAYDAYAHFTSPIRRYPDLLIHRAIRAKLREKTTGKLRSLLMKLKPIRQLAGISNSYPYDTKEIEQLSVHCSHQSRQADEVSREVESALKCHYMKPFIGRNFMGSVSGVTHFGVFVELEENRIEGLIPLSSFQNGDFEFDAIKQKISSQTTTFTLGTQVNIIVKEIDSKQRKIIFNFA,failed
14,MKLQTTIQHEPKDGSGFDRGLREFFEYRDTGVNEATGGMFGAHVIRAIPGKEAKPTWHTHTVGFQLFYVLRGWVEFEYEDIGAVMLEAGGSAFQPPGVRHRELRHSDDLEVLEIVSPAGFATSVVDLEEARKP,not failed
15,MKLRKRRLCAATGVVLGALTALAALPPAAVASPHPGGHPPTARRALPLGPAGLPERRTTTTLQPGVTLTRIVRGNAEDPALHWTVEVSIPGGDTSPDPDAPPTALKDRASADELAAELRRDGFEARVEEVTTPATADYRGGTLGWRVRIGTFDSQTAATAERTRLRAAGYSGSAVYTGWDGAATDRGPWHVDVLTIDPRTFRGTLDASYGPDLENRETTSALAASAAATAAVNAGFFVLDPRAGAPGDPAGVGVYDGRLLSEPVAGRPALVVHDDGRRTEIARLTWQGRIATRAASLPLNGVNRVPGLIRNCGGSAGDTPTSLPLHDVTCTNPDELVAFTPDYGGRTPGGEGMEAVLDAHERVVELRSPRGGTIPRGGSSVQATGERVADLTATARVGERLRVSATLLDDRGRRMSTSPGTDIVNAGPELVRDGRVHVTPATDGMVHPGDPSWYYGWVHKRNPRTVAGVDAAGRTVLVTADGRSTDSLGLSIGESAEVARSLGLRDAVNLDGGGSTTMVAEGAVLNSPSDAAGERPVGDALLILPHRHRTRS,failed
